± gives the half width of the 95% confidence interval.
Legend:
[1] = folding stability dG unfold (combined trypsin and chymotrypsin); higher = more stable
Procedure, shortened: (§1)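 Unfolding free energy was derived, per protease or combined, against a sequence-predicted unfolded-state K50 and a shared folded-state K50, starting from K50 inferred by Bayesian fitting of sequencing counts. Digestion with trypsin and chymotrypsin was carried out on designed mini-proteins under 80 residues without cysteine in a PA-tagged cDNA display construct. Only designs with AlphaFold2 dimer inter-PAE above 15 were kept.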

[2] = folding stability dG unfold from trypsin proteolysis; higher = more stable
Procedure, shortened: as §1

[3] = folding stability dG unfold from chymotrypsin proteolysis; higher = more stable
Procedure, shortened: as §1

Row | Sequence | folding stability dG unfold [1] | folding stability dG unfold [2] | folding stability dG unfold [3]
1 | SAGGSAGGSAGMRTITIPIPDGDPENIEEQARELADAFPDLKGKKVNIEYHKDGWITITVSAGGSAGGSAGG [r17_324_TrROS] | 1.15 ± 0.18 kcal/mol | 0.694 ± 0.15 kcal/mol | 1.19 ± 0.1 kcal/mol
2 | SAGGSAGGSAGMRYEIEVEEVPPGLVRIRVRVDGKEYTILISEEEAKRLAEELGVEIEPVSAGGSAGGSAGG [r17_109_TrROS_Hall] | 2.76 ± 0.19 kcal/mol | 3.24 ± 0.12 kcal/mol | 2.28 ± 0.07 kcal/mol
3 | SAGGSAGGSAGMSVSLTSTTVSLPPELLSPEEAARTEDAVVTTTTSTLPAVVDPATGTVTSAGGSAGGSAGG [r17_310_JUSTAS] | 1.39 ± 0.092 kcal/mol | 1.92 ± 0.057 kcal/mol | 0.518 ± 0.043 kcal/mol
4 | SAGGSAGGSAGMTITKTEDGTYRLTLTVTETLPNGSTVTRTVTLTVPLEDAEEILAALPPSAGGSAGGSAGG [r11_505_TrROS_Hall] | 2.72 ± 0.089 kcal/mol | 2.52 ± 0.11 kcal/mol | 2.87 ± 0.032 kcal/mol
5 | SAGGSAGGSAGMTITLPNGAEITSIEINEDGTITITVRVNGKTLTLTITVTLPPPPPEEPSAGGSAGGSAGG [r17_421_TrROS_Hall] | 3.69 ± 0.18 kcal/mol | 3.67 ± 0.17 kcal/mol | 3.54 ± 0.16 kcal/mol
6 | SAGGSAGGSAGMTLIYKDPETGKYYIVDFEESGPERVFEVDSLDEAEEIAEKLGRKLDPLSAGGSAGGSAGG [r11_1049_TrMRF] | 2.31 ± 0.055 kcal/mol | 1.39 ± 0.029 kcal/mol | 2.591 ± 0.018 kcal/mol
7 | SAGGSAGGSAGMTVEEFTIPEVGGRVIRTTVEEPTEDGVVVRRRYLILVNPDGTVERRPESAGGSAGGSAGG [r11_911_JUSTAS] | 0.111 ± 0.092 kcal/mol | -0.0463 ± 0.17 kcal/mol | 0.13 ± 0.17 kcal/mol
8 | SAGGSAGGSAGMTVPPELSVTITRSPEGSLRVESPVPDRELTIPPDVPLTVSPDNVVTVASAGGSAGGSAGG [r17_49_JUSTAS] | 0.655 ± 0.041 kcal/mol | 0.451 ± 0.031 kcal/mol | 0.783 ± 0.017 kcal/mol
9 | SAGGSAGGSAGMTVPTSVEVSPDGTVRVRQLRWVRHGDGWRPFTFTVTLPISDDALKALKSAGGSAGGSAGG [r17_415_TrMRF] | 1.12 ± 0.038 kcal/mol | 1.02 ± 0.038 kcal/mol | 1.14 ± 0.059 kcal/mol
10 | SAGGSAGGSAGMVIEDPSGVTTVVTFDTSVPVVTTTTLTKDPNSNNYTTTTTTTPVTVPVSAGGSAGGSAGG [r17_491_JUSTAS] | 1.06 ± 0.073 kcal/mol | 1.34 ± 0.099 kcal/mol | 0.725 ± 0.11 kcal/mol
11 | SAGGSAGGSAGMVIERPDDKVLVILGYDPEKGKVYVAVYDPKTGEVRFKEFDNLEDEIKDSAGGSAGGSAGG [r17_300_TrMRF] | 1.91 ± 0.17 kcal/mol | 2.16 ± 0.11 kcal/mol | 1.76 ± 0.08 kcal/mol
12 | SAGGSAGGSAGMVIEVGGKKVTIEKNEDGSLKITVTDKNGKKKEITIPGMSLEEILKALKSAGGSAGGSAGG [r11_934_TrROS_Hall] | 2.9 ± 0.081 kcal/mol | 3.23 ± 0.076 kcal/mol | 2.57 ± 0.036 kcal/mol
13 | SAGGSAGGSAGMVINVTVTLKNSTGTITITLPVPPDLLDEVLKELKEKPDYEVVSVDTSPSAGGSAGGSAGG [r11_692_JUSTAS] | 2.67 ± 0.14 kcal/mol | 2.47 ± 0.11 kcal/mol | 2.79 ± 0.16 kcal/mol
14 | SAGGSAGGSAGMVITKDPNGNYTVDLVLPDGTPLDSGTITLEEVEKILKERGIPLKEIFGSAGGSAGGSAGG [r11_521_JUSTAS] | 0.361 ± 0.12 kcal/mol | -0.271 ± 0.27 kcal/mol | 0.543 ± 0.048 kcal/mol
15 | SAGGSAGGSAGMVKLRFEVKFKIKLLGEGETNEVVEVDVKVEFEVTLPPFKVRPDGSLLESAGGSAGGSAGG [r11_558_TrMRF] | 4.03 ± 0.21 kcal/mol | 3.2 ± 0.24 kcal/mol | 4.39 ± 0.15 kcal/mol
16 | SAGGSAGGSAGMVKVKITAPPNASLDAIIKAVKDNGAEIISIERKGNELIIEVEIPEENASAGGSAGGSAGG [r11_672_TrMRF] | 1.42 ± 0.062 kcal/mol | 1.54 ± 0.054 kcal/mol | 1.28 ± 0.046 kcal/mol
17 | SAGGSAGGSAGMVLRVRTKDGKVIEIKDLSEELKNMTAEQLAEELKKKFPDLKIEVEEVPSAGGSAGGSAGG [r17_42_TrROS_Hall] | 2.37 ± 0.15 kcal/mol | 2.19 ± 0.14 kcal/mol | 2.26 ± 0.05 kcal/mol
18 | SAGGSAGGSAGNKDYPVIEVTYPFPPGAPASDIKDFAEPFGFESIEFDDNGTVKVYFYLPSAGGSAGGSAGG [r11_961_TrROS] | 0.825 ± 0.087 kcal/mol | 0.737 ± 0.051 kcal/mol | 0.818 ± 0.11 kcal/mol
19 | SAGGSAGGSAGNKPVTVRFTIKIPLPNGKKLEIPVEVTYDSPEDRDRAEKEAEEIAREFLSAGGSAGGSAGG [r17_510_TrROS] | 1.36 ± 0.097 kcal/mol | 1.5 ± 0.057 kcal/mol | 1.11 ± 0.098 kcal/mol
20 | SAGGSAGGSAGNMEVIEEVEFTFPGLGVKISVSIFKTDGGIVIMIDIEIPMPPEDRKKFKSAGGSAGGSAGG [r17_431_TrROS] | 1.25 ± 0.15 kcal/mol | 0.857 ± 0.097 kcal/mol | 1.61 ± 0.18 kcal/mol
21 | SAGGSAGGSAGNPPNKPKPIIKVVPFRYRFYIPETGSVIEIDIYVFEDDTVKIKIKTYPLSAGGSAGGSAGG [r11_883_TrMRF] | 5.03 ± 0.22 kcal/mol | 3.73 ± 0.28 kcal/mol | 5.38 ± 0.2 kcal/mol

Row | Sequence | folding stability dG unfold [1] | folding stability dG unfold [2] | folding stability dG unfold [3]
22 | SAGGSAGGSAGNYMVRLEIEMPENGRKVEWMVPEDDPEEILEKFPWLKEHGMEVKIEVFPSAGGSAGGSAGG [r17_176_TrROS] | 0.498 ± 0.1 kcal/mol | 0.236 ± 0.037 kcal/mol | 0.638 ± 0.08 kcal/mol
23 | SAGGSAGGSAGPALRIPFLVERPDGSPFWAEARVYEDGTVELRIYGDEPIATFTFPLDELSAGGSAGGSAGG [r11_327_TrMRF] | 1.68 ± 0.15 kcal/mol | 1.55 ± 0.044 kcal/mol | 1.6 ± 0.15 kcal/mol
24 | SAGGSAGGSAGPFEGYRDKKGKYYLETPDGTKELDSEEELEEEKKRLLEEGIPINVKPSASAGGSAGGSAGG [r17_35_JUSTAS] | 0.458 ± 0.26 kcal/mol | -0.308 ± 0.11 kcal/mol | 0.71 ± 0.14 kcal/mol
25 | SAGGSAGGSAGPIDPNSTRPVPADYVVIRIRGDEKPRYFVVHPEYAKEFAERHGAELYYESAGGSAGGSAGG [r17_109_TrMRF] | 0.44 ± 0.076 kcal/mol | 0.0223 ± 0.14 kcal/mol | 0.582 ± 0.082 kcal/mol
26 | SAGGSAGGSAGPIIPPNFEVVDVFETETSYYILVKNPETGRYYVARYDPLTGKIEVFEVSSAGGSAGGSAGG [r11_896_TrMRF] | 4.52 ± 0.1 kcal/mol | 3.46 ± 0.1 kcal/mol | 4.75 ± 0.065 kcal/mol
27 | SAGGSAGGSAGPKIPKNYKIVATYTVPPTNKKKLILYDPKTNKPLIFDTVSGKIYPFGKKSAGGSAGGSAGG [r11_268_TrMRF] | 1.84 ± 0.097 kcal/mol | 1.59 ± 0.027 kcal/mol | 2 ± 0.11 kcal/mol
28 | SAGGSAGGSAGPLRPRLYRVRFTNPDGSRREFLVPEGATLEEILKRFNIPESGRVELEPVSAGGSAGGSAGG [r11_340_TrMRF] | 2.26 ± 0.082 kcal/mol | 2.3 ± 0.033 kcal/mol | 2.04 ± 0.07 kcal/mol
29 | SAGGSAGGSAGPNAVYLGELEVTTRNPDGDRPLRVRVELYLVPTPEGLRLLARVLEVEELSAGGSAGGSAGG [r11_113_TrMRF] | 3.4 ± 0.04 kcal/mol | 2.81 ± 0.052 kcal/mol | 3.644 ± 0.021 kcal/mol
30 | SAGGSAGGSAGPPNQRHEYEIKLTIYDPDNGKKFTIKIPMESPWDMPNFMRKLADNGYIKSAGGSAGGSAGG [r11_668_TrROS] | 1.12 ± 0.11 kcal/mol | 0.557 ± 0.14 kcal/mol | 1.38 ± 0.11 kcal/mol
31 | SAGGSAGGSAGPRIVAFNVPNGKTIPLFAPDGWMIRINIERDPKDGEHKMETEYVPADDISAGGSAGGSAGG [r17_287_TrROS] | -0.419 ± 0.29 kcal/mol | -0.424 ± 0.37 kcal/mol | -0.276 ± 0.44 kcal/mol
32 | SAGGSAGGSAGPRYRLRIELRLERNEDGSLSLSAKIEIERIEPPPPPPRVVLYNGKLYLLSAGGSAGGSAGG [r17_418_TrROS_Hall] | 4.28 ± 0.34 kcal/mol | 3.91 ± 0.41 kcal/mol | 4.35 ± 0.21 kcal/mol
33 | SAGGSAGGSAGPSDDVKPYEVEAEFLIPGTGERVRVRAEVYTLDEEKGLALVRVEVEPVLSAGGSAGGSAGG [r11_1029_TrMRF] | 2.41 ± 0.18 kcal/mol | 1.54 ± 0.07 kcal/mol | 2.88 ± 0.054 kcal/mol
34 | SAGGSAGGSAGPSYIAVVEFENGERPVYLFPPNTGKLEDIVEELKKKFPSLKKITIYPAPSAGGSAGGSAGG [r11_311_TrMRF] | 3.33 ± 0.087 kcal/mol | 3.58 ± 0.17 kcal/mol | 3.01 ± 0.16 kcal/mol
35 | SAGGSAGGSAGPVPKTITVTVSSPEEAEAAVKEIKPKYPNVKVERKKVGDKIVLTITVEESAGGSAGGSAGG [r17_319_JUSTAS] | 1.75 ± 0.16 kcal/mol | 1.86 ± 0.11 kcal/mol | 1.88 ± 0.093 kcal/mol
36 | SAGGSAGGSAGRAEIPITFNGKKVEVEVEPDPDNGHPIITIKFGNKPVVINPDGQIRPFPSAGGSAGGSAGG [r11_732_TrROS] | 0.0302 ± 0.19 kcal/mol | -0.0507 ± 0.11 kcal/mol | -0.0926 ± 0.47 kcal/mol
37 | SAGGSAGGSAGRRIVFQFPLGMPIDEIADELADNGYEVEINWEPDPNGWMTFVIEITPPDSAGGSAGGSAGG [r11_1050_TrROS] | 1.97 ± 0.11 kcal/mol | 1.45 ± 0.016 kcal/mol | 2.31 ± 0.097 kcal/mol
38 | SAGGSAGGSAGRRVTINHNPENGFFRVKVYPPKGKSQVYPIPMENLEEIKKNLPPGVEIVSAGGSAGGSAGG [r11_569_TrROS] | -0.102 ± 0.12 kcal/mol | 0.206 ± 0.12 kcal/mol | -0.511 ± 0.24 kcal/mol
39 | SAGGSAGGSAGSFVKGGTVYEIYKNPNTKKYTIVATPKNGKKYVFTFDSPEEAEKALKASSAGGSAGGSAGG [r11_238_TrMRF] | 2.38 ± 0.065 kcal/mol | 1.65 ± 0.036 kcal/mol | 2.64 ± 0.046 kcal/mol
40 | SAGGSAGGSAGSIKEALKKLKPGDTVEIEITLKDGSKIKIRVKVIRDKKTKKYKVKIEIESAGGSAGGSAGG [r11_343_TrROS_Hall] | 3.99 ± 0.31 kcal/mol | 4.16 ± 0.47 kcal/mol | 3.84 ± 0.077 kcal/mol
41 | SAGGSAGGSAGSKDTMYLLKVKDLGENELKETYIEVPAEKVQEVIDALSSDPNLEIEVIPSAGGSAGGSAGG [r17_50_TrMRF] | 1.11 ± 0.064 kcal/mol | 1.06 ± 0.041 kcal/mol | 1.09 ± 0.054 kcal/mol
42 | SAGGSAGGSAGSKKKRVITIWIPPNQSIEEAKNFMDEGFPIKEIDVQTRPDGHMMVTITLSAGGSAGGSAGG [r11_97_TrROS] | 1.21 ± 0.14 kcal/mol | 1.56 ± 0.061 kcal/mol | 1.05 ± 0.14 kcal/mol

— the supplement of paper PMC12764529
